Measured values: patent US20240168030A1, “DIRECT FLUORESCENT GLYCAN LABELING” (BIO-TECHNE CORPORATION, priority 2019, published 2024)
Each block holds one molecule with its values, some of them ahead of it.

What was measured:
Type in all cases: biochemical
[1] = biological target: T1, ST3Gal1 (Homo sapiens, UniProt Q11201); assay: Direct fluorescent glycan labeling (DFGL) with fluorophore-conjugated sialic acid by ST3Gal1; settings: for Lower limit of detection of acceptor protein labeled by ST3Gal1: 0.2 nmol CMP-Cy5-SA, fluorescent imaging of SDS-PAGE
T1 construct: purchased R&D Systems (Bio-Techne, Minneapolis, MN)
T1 sequence (Q11201 1-340): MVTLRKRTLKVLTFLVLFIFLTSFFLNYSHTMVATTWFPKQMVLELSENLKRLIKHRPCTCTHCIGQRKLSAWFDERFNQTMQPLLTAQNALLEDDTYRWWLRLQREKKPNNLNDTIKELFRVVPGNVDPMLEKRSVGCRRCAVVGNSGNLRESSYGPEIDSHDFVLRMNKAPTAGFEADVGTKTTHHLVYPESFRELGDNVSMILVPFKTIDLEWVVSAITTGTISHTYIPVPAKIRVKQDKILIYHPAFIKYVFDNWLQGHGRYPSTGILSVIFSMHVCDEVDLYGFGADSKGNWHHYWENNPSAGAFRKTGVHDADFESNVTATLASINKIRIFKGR

[2] = biological target: T2, ST6Gal1 (Homo sapiens, UniProt P15907); assay: DFGL with fluorophore-conjugated sialic acid by ST6Gal1; settings: for Lower limit of detection of acceptor protein labeled by ST6Gal1: 0.2 nmol CMP-Cy5-SA, fluorescent imaging of SDS-PAGE
T2 construct: purchased R&D Systems (Bio-Techne, Minneapolis, MN)
T2 sequence (P15907 1-406): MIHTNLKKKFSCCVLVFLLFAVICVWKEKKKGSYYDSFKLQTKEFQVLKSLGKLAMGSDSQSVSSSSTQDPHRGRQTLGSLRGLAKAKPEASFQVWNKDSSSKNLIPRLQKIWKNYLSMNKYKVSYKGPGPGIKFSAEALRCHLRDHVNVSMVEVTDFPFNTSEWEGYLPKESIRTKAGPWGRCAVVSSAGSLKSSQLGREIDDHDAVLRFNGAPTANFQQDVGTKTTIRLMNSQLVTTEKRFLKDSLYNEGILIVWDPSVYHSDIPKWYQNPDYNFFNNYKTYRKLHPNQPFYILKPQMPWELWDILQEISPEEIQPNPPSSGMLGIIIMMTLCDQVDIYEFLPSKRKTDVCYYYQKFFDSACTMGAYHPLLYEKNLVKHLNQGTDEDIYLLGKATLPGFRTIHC

[3] = test system: fetal bovine fetuin and asialofetuin; assay: Labeling of fetuin and asialofetuin by sialyltransferases with CMP-f-SA; settings: CMP-f-SA donors, FIG. 2
[4] = 0.2 μg enzyme, 30 μL, 37° C., 30 minutes
[5] = 0.2 μg enzyme, 30 μL, 37° C., 30 minutes, listed as AF
[6] = 5 μg asialofetuin, 0.2 μg enzyme, 30 μL, 37° C., 30 minutes
[7] = 5 μg asialofetuin, 0.2 μg enzyme, 30 μL, FIG. 4

Molecule: MUC1: recombinant mucin from R&D Systems, contains O-glycans [reference compound]
Lower limit of detection of acceptor protein labeled by ST3Gal1 [1, 4]: around 0.012 μg

Molecule: asialofetuin: desialylated fetal bovine fetuin, model glycoprotein from Sigma-Aldrich [reference compound]
Lower limit of detection of acceptor protein labeled by ST3Gal1 [1, 4]: 0.37 µg
Lower limit of detection of acceptor protein labeled by ST3Gal1 [1, 5]: lower than 0.37 μg
Lower limit of detection of acceptor protein labeled by ST6Gal1 [2, 4]: 0.37 µg
Lower limit of detection of acceptor protein labeled by ST6Gal1 [2, 5]: lower than 0.37 μg

Molecule: cytidine monophosphate activated Cy5-conjugated sialic acid [CMP-Cy5-SA]
Donor amount at which maximal labeling by ST3Gal1 was achieved [1, 6]: 37.0 pmol
Donor amount at which visible labeling on asialofetuin by ST3Gal1 was observed [1, 6]: 4.11 pmol
Donor concentration for maximal labeling of asialofetuin by ST3Gal1 [1, 7]: 1.2 µM
Donor concentration needed for maximal labeling of asialofetuin by ST3Gal1 ([1]; FIG. 4): 1.21 µM
Donor amount at which maximal labeling by ST6Gal1 was achieved [2, 6]: 37.0 pmol
Donor amount at which visible labeling on asialofetuin by ST6Gal1 was observed [2, 6]: 1.37 pmol
Donor concentration for maximal labeling of asialofetuin by ST6Gal1 [2, 7]: 1.2 µM
Donor concentration needed for maximal labeling of asialofetuin by ST6Gal1 ([2]; FIG. 4): 1.21 µM

Which of fetuin and asialofetuin the sialyltransferase labeled [3]: only labeled fetuin
B1: α-N-acetylgalactosaminide α-2,6-sialyltransferase 4 (protein, UniProt Q9H4F1 1-302, looked up)
Alpha-N-acetyl-neuraminyl-2,3- …: MKAPGRLVLIILCSVVFSAVYILLCCWAGLPLCLATCLDHHFPTGSRPTVPGPLHFSGYSSVPDGKPLVREPCRSCAVVSSSGQMLGSGLGAEIDSAECVFRMNQAPTVGFEADVGQRSTLRVVSHTSVPLLLRNYSHYFQKARDTLYMVWGQGRHMDRVLGGRTYRTLLQLTRMYPGLQVYTFTERMMAYCDQIFQDETGKNRRQSGSFLSTGWFTMILALELCEEIVVYGMVSDSYCREKSHPSVPYHYFEKGRLDECQMYLAHEQAPRSAHRFITEKAVFSRWAKKRPIVFAHPSWRTE
notes: recombinant human sialyltransferase, O-GalNAc specific

B2: α-2,3-sialyltransferase 2 (protein, UniProt Q16842 1-350, looked up)
CMP-N-acetylneuraminate-beta-g …: MKCSLRVWFLSVAFLLVFIMSLLFTYSHHSMATLPYLDSGALDGTHRVKLVPGYAGLQRLSKERLSGKSCACRRCMGDAGASDWFDSHFDGNISPVWTRENMDLPPDVQRWWMMLQPQFKSHNTNEVLEKLFQIVPGENPYRFRDPHQCRRCAVVGNSGNLRGSGYGQDVDGHNFIMRMNQAPTVGFEQDVGSRTTHHFMYPESAKNLPANVSFVLVPFKVLDLLWIASALSTGQIRFTYAPVKSFLRVDKEKVQIYNPAFFKYIHDRWTEHHGRYPSTGMLVLFFALHVCDEVNVYGFGADSRGNWHHYWENNRYAGEFRKTGVHDADFEAHIIDMLAKASKIEVYRGN
notes: recombinant human sialyltransferase, Core-1 O-glycan specific
Which of fetuin and asialofetuin the sialyltransferase labeled [3]: primarily labeled asialofetuin, but also weakly labeled fetuin

Which of fetuin and asialofetuin the sialyltransferase labeled [3]: labeled both fetuin and asialofetuin
B3: α-N-acetylgalactosaminide α-2,6-sialyltransferase 1 (protein, UniProt Q9NSC7 1-600, looked up)
Alpha-N-acetylgalactosaminide …: MRSCLWRCRHLSQGVQWSLLLAVLVFFLFALPSFIKEPQTKPSRHQRTENIKERSLQSLAKPKSQAPTRARRTTIYAEPVPENNALNTQTQPKAHTTGDRGKEANQAPPEEQDKVPHTAQRAAWKSPEKEKTMVNTLSPRGQDAGMASGRTEAQSWKSQDTKTTQGNGGQTRKLTASRTVSEKHQGKAATTAKTLIPKSQHRMLAPTGAVSTRTRQKGVTTAVIPPKEKKPQATPPPAPFQSPTTQRNQRLKAANFKSEPRWDFEEKYSFEIGGLQTTCPDSVKIKASKSLWLQKLFLPNLTLFLDSRHFNQSEWDRLEHFAPPFGFMELNYSLVQKVVTRFPPVPQQQLLLASLPAGSLRCITCAVVGNGGILNNSHMGQEIDSHDYVFRLSGALIKGYEQDVGTRTSFYGFTAFSLTQSLLILGNRGFKNVPLGKDVRYLHFLEGTRDYEWLEALLMNQTVMSKNLFWFRHRPQEAFREALHMDRYLLLHPDFLRYMKNRFLRSKTLDGAHWRIYRPTTGALLLLTALQLCDQVSAYGFITEGHERFSDHYYDTSWKRLIFYINHDFKLEREVWKRLHDEGIIRLYQRPGPGTAKAKN
notes: as for B1
